From patent US20170369572A1 (CELGENE, published 2017)
Values belong to the binder of their own block, whether it stands above or below them.

Key:
human C1q = target: T1, human C1q (human, UniProt P02745 23-245; P02746 28-253; P02747 29-245); experiment: C1q binding ELISA, antibody coated and titrated, bound human C1q detected with anti-C1q HRP; NA = do not show activity
T1 construct: also called C1q (AbD Serotec 2221-5504)
Description: Method: 96-well high protein binding ELISA plates (MaxSorp Nunc) were coated overnight at 4° C. with sample anti-CD47 antibody variants diluted in 0.05 M Sodium Bicarbonate Buffer (pH 9). Samples were diluted at a high concentration of 133.4 nM (20 μg/ml) and titrated 1:2 in an 11-point dilution curve. Plates were washed three times in PBS, 0.05% Tween 20 and blocked for 1 hour at room temperature with ELISA Diluent (0.1 M NAPO₄, 0.1 M NaCl, 0.1% gelatin, 0.05% Tween 20, 0.05% ProClin300). Plates were then washed again three times and incubated for two hours at room temperature with 2 μg/mL human C1q (AbD Serotec 2221-5504, 1 mg/mL stock) diluted in ELISA Diluent. Plates were then washed three times and incubated with sheep anti-human C1q HRP (AbD Serotec 2221-5004P) diluted 1:200 in ELISA Diluent for 1 hour at room temperature to detect bound Clq. Plates were then washed three times, then 100 μL of TMB solution was added. Reaction was quenched by adding 100 μl of 1M Phosphoric Acid and plate was read at 450 nm. Data are plotted using Prism6 as non-linear regression with log (inhibitor) vs. response—Variable slope (four parameters).

[1] = target: T2, human CD47 on CCRF-CEM cells (human, UniProt Q08722 19-323); experiment: flow cytometry on CCRF-CEM cells, MFI against concentration, one site specific binding with Hill slope
T2 construct: Endogenous CD47 on the human T lymphoblast line CCRF-CEM (ATCC CCL-119); also called CD47-positive CCRF-CEM cells; CCRF-EM cells
Description: To obtain binding curves, sample variants were titrated 1:2 in FACS buffer (PBS 2% FCS) starting from a high concentration of ˜66 nM for each sample. 0.1×10⁶ CCRF-EM cells were plated in a 96 well plate and incubated in 50 μl FACS buffer containing the indicated concentration of sample variants for 1 hour in ice. Cells were then washed with 150 μ1 FACS buffer and incubated in 50 μl FACS buffer containing the secondary antibody (anti-human-IgG-PE, Jackson ImmunoResearch) diluted 1:100, for 1 hr in ice. Cells were then washed with FACS buffer and fixed in 2% PFA for acquisition with LSR II, DB flow cytometer (BD Biosciences, San Jose, Calif.). Flow Cytometry analysis was performed using FloJo software Version 9.6.4. To obtain titration curves and Kd, Mean Fluorescence Intensity (MFI) values were plotted against concentration (nM). Kd values were calculated using Prism 6, Non linear regression curve fit analysis, One Site Specific Binding with Hill Slope.

human CD47 antigen [2] = target: T3, human CD47 antigen (human, UniProt Q08722 19-139, limits assumed); experiment: SPR (Biacore): antibody captured on anti-human Fc CM5 chip, human CD47 as analyte at 3.125-50 nM, 1:1 Binding model; the text says this fit is not reliable
T3 construct: also called CD47 analyte
Description: (§1) Immobilization: Anti-human Fc (AHC) surfaces were prepared by amine-coupling monoclonal mouse anti-human Fc IgG (included in the Biacore Human Antibody Capture Kit, GE Life Sciences Cat #BR-1008-39) to a Biacore CM5 sensor chip surface. The running buffer for the immobilization procedure was HBS-EP+ (10 mM HEPES, 150 mM NaCl, 3 mM EDTA, 0.05% v/v P-20 as surfactant). The following was performed in all four flow cells to prepare surfaces amine-coupled anti-human Fc IgG. The CM5 chip surface was activated by injecting a 1:1 (v/v) mixture of 400 mM EDC and 100 mM NHS for 7 minutes at 10 μL/min. Following this treatment, anti-human IgG was diluted to 25 μg/mL in 10 mM sodium acetate buffer pH 5.0, and injected over all the flow cells at 10 μL/min for 7 minutes. Then, Ethanolamine was injected at 10 μL/min for 7 minutes to block all the surfaces.
(§2) Kinetic Assays: For kinetic assays anti-CD47 antibodies were captured onto the anti-human Fc surfaces (surface preparation described above). For capture of the antibodies with human Fc, the antibodies were diluted to 10 μg/mL in HBS-EP+ running buffer. The antibody variants were immobilized by flowing over flow cell 2, 3 or 4 at a flow rate of 10 uL/min for 12 seconds. The analyte (human CD47 antigen) was diluted into running buffer to prepare a serial dilution series created with a 2-fold dilution factor to give concentrations of 3.125, 6.25, 12.5, 25 and 50 nM. After anti-CD47 antibody capture, the CD47 analyte was injected over the flow cells for 180 seconds (3 minutes) at 50 μL/min, and complex dissociation was monitored for 900 seconds (15 minutes). Buffer blanks were also run, and were used to reference the analyte binding data before fitting. Anti-human Fc surfaces were regenerated with two 30-second injections of 3M MgCl₂ at 30 uL/min between each analyte binding cycle.
(§3) Kinetic data analysis: Experimental data for a given antibody—antigen interaction were fit using the 1:1 binding model, using global Rₘₐₓ, global kₐ (association), global kd (dissociation) parameters, and constant RI (bulk refractive index) parameters.

human CD47 antigen [3] = target: T3, human CD47 antigen; experiment: SPR (Biacore), experimental Rmax against theoretical Rmax, stoichiometry 2
Description: as §2
Kinetic data analysis: Experimental data for a given antibody—antigen interaction were fit using the 1:1 binding model, using global Rₘₐₓ, global kₐ (association), global kd (dissociation) parameters, and constant RI (bulk refractive index) parameters. Fraction activity (% ligand activity) was determinined using the following formula to calculate the relationship between the theoretical Rₘₐₓ (Rₘₐₓ Theo) and the experimental Rₘₐₓ (Rₘₐₓ exp). In the formula, stoichiometry represents the instances of interaction between antibody and antigen, for instance, when the antibody is the ligand, each of the antibody arms can interact with antigen, thus the stoichiometry is 2.

human CD47 antigen [4] = target: T3, human CD47 antigen; experiment: SPR (Biacore), antibody captured on anti-human Fc, human CD47 as analyte 3.125-50 nM, 1:1 model
Description: as §1, §2, §3

T1 sequence (P02745 23-245 limits assumed, chain 1 of 3): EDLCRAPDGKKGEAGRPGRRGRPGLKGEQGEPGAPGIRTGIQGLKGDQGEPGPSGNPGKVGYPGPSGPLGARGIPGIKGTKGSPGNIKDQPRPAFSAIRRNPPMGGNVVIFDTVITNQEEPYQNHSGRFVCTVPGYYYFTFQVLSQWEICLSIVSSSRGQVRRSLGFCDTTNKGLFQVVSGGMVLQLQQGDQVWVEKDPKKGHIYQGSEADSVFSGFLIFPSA
T1 sequence (P02746 28-253 limits assumed, chain 2 of 3): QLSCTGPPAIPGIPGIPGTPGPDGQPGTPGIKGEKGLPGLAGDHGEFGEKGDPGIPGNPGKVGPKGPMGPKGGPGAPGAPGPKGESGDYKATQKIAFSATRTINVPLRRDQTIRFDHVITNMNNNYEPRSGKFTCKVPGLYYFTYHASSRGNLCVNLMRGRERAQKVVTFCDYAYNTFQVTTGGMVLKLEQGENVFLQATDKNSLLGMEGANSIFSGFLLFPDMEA
T1 sequence (P02747 29-245 limits assumed, chain 3 of 3): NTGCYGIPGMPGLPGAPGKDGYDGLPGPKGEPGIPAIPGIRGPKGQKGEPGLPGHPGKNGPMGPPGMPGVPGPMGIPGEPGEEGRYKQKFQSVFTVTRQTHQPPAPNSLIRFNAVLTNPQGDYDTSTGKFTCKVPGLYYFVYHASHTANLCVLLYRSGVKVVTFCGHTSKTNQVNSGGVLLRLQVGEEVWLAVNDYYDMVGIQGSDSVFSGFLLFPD

B1: anti-CD47 antibody IgG4P-parental, CHO expressed (antibody)
VH: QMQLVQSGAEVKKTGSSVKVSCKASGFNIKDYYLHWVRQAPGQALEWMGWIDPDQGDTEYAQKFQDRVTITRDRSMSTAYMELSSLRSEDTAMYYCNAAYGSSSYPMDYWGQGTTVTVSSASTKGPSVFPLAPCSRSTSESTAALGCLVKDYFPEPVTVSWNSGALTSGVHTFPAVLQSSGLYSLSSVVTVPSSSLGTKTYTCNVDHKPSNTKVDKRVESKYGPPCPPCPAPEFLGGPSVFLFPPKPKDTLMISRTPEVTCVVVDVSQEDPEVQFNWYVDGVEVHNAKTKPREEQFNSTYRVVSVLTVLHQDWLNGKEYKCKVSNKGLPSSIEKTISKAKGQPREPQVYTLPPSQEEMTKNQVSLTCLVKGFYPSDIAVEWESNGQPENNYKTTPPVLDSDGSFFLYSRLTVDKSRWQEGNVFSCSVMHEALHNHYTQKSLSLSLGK
VL: NIQMTQSPSAMSASVGDRVTITCKASQDIHRYLSWFQQKPGKVPKHLIYRANRLVSGVPSRFSGSGSGTEFTLTISSLQPEDFATYYCLQYDEFPYTFGGGTKVEIKRTVAAPSVFIFPPSDEQLKSGTASVVCLLNNFYPREAKVQWKVDNALQSGNSQESVTEQDSKDSTYSLSSTLTLSKADYEKHKVYACEVTHQGLSSPVTKSFNRGEC
notes: Parental antibody as IgG4 S228P, made in CHO cells
binding result (human C1q): no binding
Kd [1]: 0.18 nM

B3: anti-CD47 antibody IgG1-13m, cell-free expressed (antibody)
heavy: not shown
light: MNIQMTQSPSAMSASVGDRVTITCKASQDIHRYLSWFQQKPGKVPKHLIYRANRLVSGVPSRFSGSGSGTEFTLTISSLQPEDFATYYCLQYDEFPYTFGGGTKVEIKRTVAAPSVFIFPPSDEQLKSGTASVVCLLNNFYPREAKVQWKVDNALQSGNSQESVTEQDSKDSTYSLSSTLTLSKADYEKHKVYACEVTHQGLSSPVTKSFNRGEC
notes: IgG1 with 13 framework mutations in VH; cell-free system; also called IgG1-13m-CF
Kd (human CD47 antigen [2]): 4.21 nM
koff (human CD47 antigen [2]): 0.00398 s⁻¹
kon (human CD47 antigen [2]): 946000 M⁻¹ s⁻¹
binding result (human C1q): no binding
Kd [1]: 0.15 nM

B4: anti-CD47 antibody IgG4P-5m, cell-free expressed (antibody)
heavy: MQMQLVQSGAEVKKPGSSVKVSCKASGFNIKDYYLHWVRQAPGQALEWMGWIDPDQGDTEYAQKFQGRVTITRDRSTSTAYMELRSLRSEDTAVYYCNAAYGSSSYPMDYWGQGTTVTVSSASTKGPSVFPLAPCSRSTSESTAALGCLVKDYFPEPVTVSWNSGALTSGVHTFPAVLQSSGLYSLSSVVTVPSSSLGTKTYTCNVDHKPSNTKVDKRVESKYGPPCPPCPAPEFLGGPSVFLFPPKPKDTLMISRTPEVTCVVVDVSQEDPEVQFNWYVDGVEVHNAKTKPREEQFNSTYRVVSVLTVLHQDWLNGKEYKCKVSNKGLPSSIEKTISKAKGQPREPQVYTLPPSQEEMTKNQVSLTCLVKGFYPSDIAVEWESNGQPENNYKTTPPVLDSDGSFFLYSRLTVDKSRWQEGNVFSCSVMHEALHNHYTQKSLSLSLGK
light: MNIQMTQSPSAMSASVGDRVTITCKASQDIHRYLSWFQQKPGKVPKHLIYRANRLVSGVPSRFSGSGSGTEFTLTISSLQPEDFATYYCLQYDEFPYTFGGGTKVEIKRTVAAPSVFIFPPSDEQLKSGTASVVCLLNNFYPREAKVQWKVDNALQSGNSQESVTEQDSKDSTYSLSSTLTLSKADYEKHKVYACEVTHQGLSSPVTKSFNRGEC
notes: IgG4 S228P with 5 framework mutations in VH; cell-free system; also called IgG4P-5m-CF
% Ligand activity (human CD47 antigen [3]): 38.2%
Kd (human CD47 antigen [4]): 3.6 nM
koff (human CD47 antigen [4]): 0.00254 s⁻¹
kon (human CD47 antigen [4]): 704000 M⁻¹ s⁻¹
binding result (human C1q): no binding
Kd [1]: 0.14 nM

B5: anti-CD47 antibody IgG4P-parental, cell-free expressed (antibody)
heavy: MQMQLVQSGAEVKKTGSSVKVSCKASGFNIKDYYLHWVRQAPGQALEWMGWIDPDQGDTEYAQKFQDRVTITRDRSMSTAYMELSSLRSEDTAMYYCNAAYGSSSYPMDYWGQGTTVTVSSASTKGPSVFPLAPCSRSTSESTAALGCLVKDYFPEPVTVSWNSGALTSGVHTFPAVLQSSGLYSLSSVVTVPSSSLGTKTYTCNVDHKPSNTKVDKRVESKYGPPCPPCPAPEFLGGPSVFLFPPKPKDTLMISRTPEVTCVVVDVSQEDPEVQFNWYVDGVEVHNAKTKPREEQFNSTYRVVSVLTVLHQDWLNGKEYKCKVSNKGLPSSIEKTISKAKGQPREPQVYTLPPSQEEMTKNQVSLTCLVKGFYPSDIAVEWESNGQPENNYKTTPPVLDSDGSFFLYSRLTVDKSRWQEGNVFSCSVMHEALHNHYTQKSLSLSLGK
light: MNIQMTQSPSAMSASVGDRVTITCKASQDIHRYLSWFQQKPGKVPKHLIYRANRLVSGVPSRFSGSGSGTEFTLTISSLQPEDFATYYCLQYDEFPYTFGGGTKVEIKRTVAAPSVFIFPPSDEQLKSGTASVVCLLNNFYPREAKVQWKVDNALQSGNSQESVTEQDSKDSTYSLSSTLTLSKADYEKHKVYACEVTHQGLSSPVTKSFNRGEC
notes: Parental variable domains on IgG4 S228P; cell-free system; also called IgG4P-parental-CF
binding result (human C1q): no binding

B10: anti-CD47 antibody IgG1-5m, cell-free expressed (antibody)
heavy: not shown
light: MNIQMTQSPSAMSASVGDRVTITCKASQDIHRYLSWFQQKPGKVPKHLIYRANRLVSGVPSRFSGSGSGTEFTLTISSLQPEDFATYYCLQYDEFPYTFGGGTKVEIKRTVAAPSVFIFPPSDEQLKSGTASVVCLLNNFYPREAKVQWKVDNALQSGNSQESVTEQDSKDSTYSLSSTLTLSKADYEKHKVYACEVTHQGLSSPVTKSFNRGEC
notes: IgG1 with 5 framework mutations in VH; also called IgG1-5m-CF
% Ligand activity (human CD47 antigen [3]): 37.4%
Kd (human CD47 antigen [4]): 4.09 nM
koff (human CD47 antigen [4]): 0.0026 s⁻¹
kon (human CD47 antigen [4]): 636000 M⁻¹ s⁻¹
binding result (human C1q): no binding
Kd [1]: 0.12 nM

B11: Anti-CD47 CF Control (antibody, V domains shown)
VH: QMQLVQSGAEVKKTGSSVKVSCKASGFNIKDYYLHWVRQAPGQALEWMGWIDPDQGDTEYAQKFQDRVTITRDRSMSTAYMELSSLRSEDTAMYYCNAAYGSSSYPMDYWGQGTTVTV
VL: NIQMTQSPSAMSASVGDRVTITCKASQDIHRYLSWFQQKPGKVPKHLIYRANRLVSGVPSRFSGSGSGTEFTLTISSLQPEDFATYYCLQYDEFPYTFGGGTKVEIK
notes: also called Control Antibody; anti-CD47 control antibody
% Ligand activity (human CD47 antigen [3]): 39.4%
Kd (human CD47 antigen [4]): 3.16 nM
koff (human CD47 antigen [4]): 0.00231 s⁻¹
kon (human CD47 antigen [4]): 732000 M⁻¹ s⁻¹

Next, values leading:

binding result (human C1q): no binding
Kd [1]: 0.21 nM
B2: anti-CD47 antibody IgG4PE-parental, CHO expressed (antibody)
VH: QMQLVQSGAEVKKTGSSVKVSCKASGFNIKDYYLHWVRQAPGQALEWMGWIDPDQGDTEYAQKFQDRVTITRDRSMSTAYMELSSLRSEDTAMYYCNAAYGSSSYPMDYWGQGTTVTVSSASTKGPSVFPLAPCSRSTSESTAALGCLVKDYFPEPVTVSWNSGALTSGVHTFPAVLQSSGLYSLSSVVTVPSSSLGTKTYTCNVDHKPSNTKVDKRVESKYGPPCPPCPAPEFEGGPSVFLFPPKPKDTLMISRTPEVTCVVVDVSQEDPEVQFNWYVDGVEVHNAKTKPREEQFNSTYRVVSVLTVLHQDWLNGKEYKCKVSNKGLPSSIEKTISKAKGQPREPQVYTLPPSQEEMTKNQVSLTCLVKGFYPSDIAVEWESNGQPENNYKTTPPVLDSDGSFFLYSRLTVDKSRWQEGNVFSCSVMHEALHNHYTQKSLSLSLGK
VL: NIQMTQSPSAMSASVGDRVTITCKASQDIHRYLSWFQQKPGKVPKHLIYRANRLVSGVPSRFSGSGSGTEFTLTISSLQPEDFATYYCLQYDEFPYTFGGGTKVEIKRTVAAPSVFIFPPSDEQLKSGTASVVCLLNNFYPREAKVQWKVDNALQSGNSQESVTEQDSKDSTYSLSSTLTLSKADYEKHKVYACEVTHQGLSSPVTKSFNRGEC
notes: Parental antibody as IgG4 S228P/L235E, made in CHO cells; also called IgG4-PE CHO; CHO IgG4PE

binding result (human C1q): no binding
Kd [1]: 0.14 nM
B6: anti-CD47 antibody IgG1-parental, cell-free expressed (antibody)
heavy: not shown
light: MNIQMTQSPSAMSASVGDRVTITCKASQDIHRYLSWFQQKPGKVPKHLIYRANRLVSGVPSRFSGSGSGTEFTLTISSLQPEDFATYYCLQYDEFPYTFGGGTKVEIKRTVAAPSVFIFPPSDEQLKSGTASVVCLLNNFYPREAKVQWKVDNALQSGNSQESVTEQDSKDSTYSLSSTLTLSKADYEKHKVYACEVTHQGLSSPVTKSFNRGEC
notes: Parental (AB6.12) variable domains on IgG1; cell-free system; also called IgG1-parental-CF; IgG1-CF

Kd (human CD47 antigen [2]): 4.91 nM
koff (human CD47 antigen [2]): 0.00404 s⁻¹
kon (human CD47 antigen [2]): 824000 M⁻¹ s⁻¹
binding result (human C1q): no binding
Kd [1]: 0.21 nM
B7: anti-CD47 antibody IgG1-13mZ, cell-free expressed (antibody)
heavy: not shown
light: MNIQMTQSPSAMSASVGDRVTITCKASQDIHRYLSWFQQKPGKVPKHLIYRANRLVSGVPSRFSGSGSGTEFTLTISSLQPEDFATYYCLQYDEFPYTFGGGTKVEIKRTVAAPSVFIFPPSDEQLKSGTASVVCLLNNFYPREAKVQWKVDNALQSGNSQESVTEQDSKDSTYSLSSTLTLSKADYEKHKVYACEVTHQGLSSPVTKSFNRGEC
notes: IgG1 Z allotype with 13 framework mutations in VH (13 + 2 mutations); cell-free system; also called IgG1-13mZ-CF

binding result (human C1q): no binding
B8: anti-CD47 antibody IgG4PE-parental, cell-free expressed (antibody)
heavy: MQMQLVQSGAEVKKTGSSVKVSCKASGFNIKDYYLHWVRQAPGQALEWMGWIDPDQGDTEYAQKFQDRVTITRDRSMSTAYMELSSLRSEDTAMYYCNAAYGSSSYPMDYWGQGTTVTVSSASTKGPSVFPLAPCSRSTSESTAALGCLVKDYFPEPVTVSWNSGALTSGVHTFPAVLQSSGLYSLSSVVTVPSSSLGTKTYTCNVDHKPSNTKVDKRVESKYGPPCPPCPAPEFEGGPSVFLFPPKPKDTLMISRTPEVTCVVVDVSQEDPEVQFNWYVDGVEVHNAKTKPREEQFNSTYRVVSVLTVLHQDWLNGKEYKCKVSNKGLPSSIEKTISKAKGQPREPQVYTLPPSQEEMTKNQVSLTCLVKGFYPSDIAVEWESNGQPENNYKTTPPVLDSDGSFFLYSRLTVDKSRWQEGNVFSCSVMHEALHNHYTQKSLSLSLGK
light: MNIQMTQSPSAMSASVGDRVTITCKASQDIHRYLSWFQQKPGKVPKHLIYRANRLVSGVPSRFSGSGSGTEFTLTISSLQPEDFATYYCLQYDEFPYTFGGGTKVEIKRTVAAPSVFIFPPSDEQLKSGTASVVCLLNNFYPREAKVQWKVDNALQSGNSQESVTEQDSKDSTYSLSSTLTLSKADYEKHKVYACEVTHQGLSSPVTKSFNRGEC
notes: Parental variable domains on IgG4 S228P/L235E; cell-free system; also called IgG4PE-parental-CF

% Ligand activity (human CD47 antigen [3]): 39.2%
Kd (human CD47 antigen [4]): 4.27 nM
koff (human CD47 antigen [4]): 0.00254 s⁻¹
kon (human CD47 antigen [4]): 594000 M⁻¹ s⁻¹
binding result (human C1q): no binding
Kd [1]: 0.14 nM
B9: anti-CD47 antibody IgG4PE-5m, cell-free expressed (antibody)
heavy: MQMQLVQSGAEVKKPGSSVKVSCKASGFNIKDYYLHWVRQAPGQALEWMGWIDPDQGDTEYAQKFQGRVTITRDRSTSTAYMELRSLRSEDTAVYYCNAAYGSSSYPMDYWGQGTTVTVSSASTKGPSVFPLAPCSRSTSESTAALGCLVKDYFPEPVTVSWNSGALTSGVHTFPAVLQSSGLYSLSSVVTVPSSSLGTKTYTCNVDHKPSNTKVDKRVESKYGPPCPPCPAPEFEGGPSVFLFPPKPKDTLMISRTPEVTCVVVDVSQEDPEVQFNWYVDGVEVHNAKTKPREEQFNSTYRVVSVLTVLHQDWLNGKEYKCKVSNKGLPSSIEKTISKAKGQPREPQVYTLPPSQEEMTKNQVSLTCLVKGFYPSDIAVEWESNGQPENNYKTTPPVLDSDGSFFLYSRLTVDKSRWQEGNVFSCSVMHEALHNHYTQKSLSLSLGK
light: MNIQMTQSPSAMSASVGDRVTITCKASQDIHRYLSWFQQKPGKVPKHLIYRANRLVSGVPSRFSGSGSGTEFTLTISSLQPEDFATYYCLQYDEFPYTFGGGTKVEIKRTVAAPSVFIFPPSDEQLKSGTASVVCLLNNFYPREAKVQWKVDNALQSGNSQESVTEQDSKDSTYSLSSTLTLSKADYEKHKVYACEVTHQGLSSPVTKSFNRGEC
notes: IgG4 S228P/L235E with 5 framework mutations in VH; cell-free system; also called IgG4PE-5m-CF
